This is an account of results in patent US20150125477A1 (IMMATICS BIOTECHNOLOGIES, published 2015).

The assay addresses T1, A*0201 (biotinylated pMHC monomer from UV-induced MHC ligand exchange) (human, biotin).
T1 construct: pMHC complexes for aAPC loading and multimer read-out
The experiment in a line: pMHC complex from UV-induced MHC ligand exchange, used as control. The protocol:
Generation of pMHC/anti-CD28 coated beads, T-cell stimulations and readout was performed in a highly defined in vitro system using four different pMHC molecules per stimulation condition and 8 different pMHC molecules per readout condition. […] In order to determine the amount of pMHC monomer obtained by exchange we performed streptavidin-based sandwich ELISAs according to (Rodenko et al., 2006). The purified co-stimulatory mouse IgG2a anti human CD28 Ab 9.3 (Jung et al., 1987) was chemically biotinylated using Sulfo-N-hydroxysuccinimidobiotin as recommended by the manufacturer (Perbio, Bonn, Germany). Beads used were 5.6 μm diameter streptavidin coated polystyrene particles (Bangs Laboratories, Illinois, USA).
Half of the medium was then exchanged by fresh TCM supplemented with 80 U/ml IL-2 and incubating was continued for 3-4 days at 37° C. […] Finally, multimeric analyses were performed by staining the cells with Live/dead near IR dye (Invitrogen, Karlsruhe, Germany), CD8-FITC antibody clone SK1 (BD, Heidelberg, Germany) and fluorescent pMHC multimers. For analysis, a BD LSRII SORP cytometer equipped with appropriate lasers and filters was used. Peptide specific cells were calculated as percentage of total CD8+ cells. Evaluation of multimeric analysis was done using the FlowJo software (Tree Star, Oregon, USA).

B1: DDX5-001 (peptide)
peptide: YLLPAIVHI
notes: control for low immunogenic stimulation
On to B1, for which the binding result was “binds”.
